According to patent US20120316071A1 (published 2012):
Substitutions are numbered along the chain they refer to. In names and notes the source's numbering stands.

B1: Fab VH1-46_IGHD6-6*01_IGHJ1*01 S102A/S103P/S104F/H111F (APFF) & L6_IGKJ1*01 S28R (Fab, V domains shown)
VH: QVQLVQSGAEVKKPGASVKVSCKASGYTFTSYYMHWVRQAPGQGLEWMGIINPSGGSTSYAQKFQGRVTMTRDTSTSTVYMELSSLRSEDTAVYYCAREEYAPFSAEYFQFWGQGTLVTVSS
VL: EIVLTQSPATLSLSPGERATLSCRASQRVSSYLAWYQQKPGQAPRLLIYDASNRATGIPARFSGSGSGTDFTLTISSLEPEDFAVYYCQQRSNWPPWTFGQGTKVEIKR
notes: Fab expressed in E. coli: VH joined to CH1 (Plasmid A, His6 and Flag tags), VL joined to kappa CL (Plasmid C); also called APFF S28R
B2: Fab VH1-46_IGHD6-6*01_IGHJ1*01 S102A/S103P/S104F/H111F (APFF) & L6_IGKJ1*01 S28P (Fab, V domains shown)
VH: B1 VH
VL: B1 VL with R28P
notes: Fab expressed in E. coli: VH joined to CH1 (Plasmid A, His6 and Flag tags), VL joined to kappa CL (Plasmid C); also called APFF S28P
B3: Fab VH1-46_IGHD6-6*01_IGHJ1*01 S102A/S103P/S104F/H111F (APFF) & L6_IGKJ1*01 S28Q (Fab, V domains shown)
VH: B1 VH
VL: B1 VL with R28Q
notes: Fab expressed in E. coli: VH joined to CH1 (Plasmid A, His6 and Flag tags), VL joined to kappa CL (Plasmid C); also called APFF S28Q
B4: Fab VH1-46_IGHD6-6*01_IGHJ1*01 S102A/S103P/S104F/H111F (APFF) & L6_IGKJ1*01 S30W (Fab, V domains shown)
VH: B1 VH
VL: B1 VL with R28S, S30W
notes: Fab expressed in E. coli: VH joined to CH1 (Plasmid A, His6 and Flag tags), VL joined to kappa CL (Plasmid C); also called APFF S30W
B5: Fab VH1-46_IGHD6-6*01_IGHJ1*01 S102A/S103P/S104F/H111F (APFF) & L6_IGKJ1*01 S30Q (Fab, V domains shown)
VH: B1 VH
VL: B1 VL with R28S, S30Q
notes: Fab expressed in E. coli: VH joined to CH1 (Plasmid A, His6 and Flag tags), VL joined to kappa CL (Plasmid C); also called APFF S30Q
B6: Fab VH1-46_IGHD6-6*01_IGHJ1*01 S102A/S103P/S104F/H111F (APFF) & L6_IGKJ1*01 S30T (Fab, V domains shown)
VH: B1 VH
VL: B1 VL with R28S, S30T
notes: Fab expressed in E. coli: VH joined to CH1 (Plasmid A, His6 and Flag tags), VL joined to kappa CL (Plasmid C); also called APFF S30T
B7: Fab VH1-46_IGHD6-6*01_IGHJ1*01 S102A/S103P/S104F/H111F (APFF) & L6_IGKJ1*01 S30L (Fab, V domains shown)
VH: B1 VH
VL: B1 VL with R28S, S30L
notes: Fab expressed in E. coli: VH joined to CH1 (Plasmid A, His6 and Flag tags), VL joined to kappa CL (Plasmid C); also called APFF S30L
B8: Fab VH1-46_IGHD6-6*01_IGHJ1*01 S102A/S103P/S104F/H111F (APFF) & L6_IGKJ1*01 S28T (Fab, V domains shown)
VH: B1 VH
VL: B1 VL with R28T
notes: Fab expressed in E. coli: VH joined to CH1 (Plasmid A, His6 and Flag tags), VL joined to kappa CL (Plasmid C); also called APFF S28T
B9: Fab VH1-46_IGHD6-6*01_IGHJ1*01 S102A/S103P/S104F/H111F (APFF) & L6_IGKJ1*01 S30C (Fab, V domains shown)
VH: B1 VH
VL: B1 VL with R28S, S30C
notes: Fab expressed in E. coli: VH joined to CH1 (Plasmid A, His6 and Flag tags), VL joined to kappa CL (Plasmid C); also called APFF S30C
B10: Fab VH1-46_IGHD6-6*01_IGHJ1*01 S102A/S103P/S104F/H111F (APFF) & L6_IGKJ1*01 S28E (Fab, V domains shown)
VH: B1 VH
VL: B1 VL with R28E
notes: Fab expressed in E. coli: VH joined to CH1 (Plasmid A, His6 and Flag tags), VL joined to kappa CL (Plasmid C); also called APFF S28E
B11: Fab VH1-46_IGHD6-6*01_IGHJ1*01 S102A/S103P/S104F/H111F (APFF) & L6_IGKJ1*01 S28I (Fab, V domains shown)
VH: B1 VH
VL: B1 VL with R28I
notes: Fab expressed in E. coli: VH joined to CH1 (Plasmid A, His6 and Flag tags), VL joined to kappa CL (Plasmid C); also called APFF S28I
B12: Fab VH1-46_IGHD6-6*01_IGHJ1*01 S102A/S103P/S104F/H111F (APFF) & L6_IGKJ1*01 S28W (Fab, V domains shown)
VH: B1 VH
VL: B1 VL with R28W
notes: Fab expressed in E. coli: VH joined to CH1 (Plasmid A, His6 and Flag tags), VL joined to kappa CL (Plasmid C); also called APFF S28W
B13: Fab VH1-46_IGHD6-6*01_IGHJ1*01 S102A/S103P/S104F/H111F (APFF) & L6_IGKJ1*01 S28A (Fab, V domains shown)
VH: B1 VH
VL: B1 VL with R28A
notes: Fab expressed in E. coli: VH joined to CH1 (Plasmid A, His6 and Flag tags), VL joined to kappa CL (Plasmid C); also called APFF S28A
B14: Fab VH1-46_IGHD6-6*01_IGHJ1*01 S102A/S103P/S104F/H111F (APFF) & L6_IGKJ1*01 S28L (Fab, V domains shown)
VH: B1 VH
VL: B1 VL with R28L
notes: Fab expressed in E. coli: VH joined to CH1 (Plasmid A, His6 and Flag tags), VL joined to kappa CL (Plasmid C); also called APFF S28L
B15: Fab VH1-46_IGHD6-6*01_IGHJ1*01 S102A/S103P/S104F/H111F (APFF) & L6_IGKJ1*01 S30G (Fab, V domains shown)
VH: B1 VH
VL: B1 VL with R28S, S30G
notes: Fab expressed in E. coli: VH joined to CH1 (Plasmid A, His6 and Flag tags), VL joined to kappa CL (Plasmid C); also called APFF S30G
B16: Fab VH1-46_IGHD6-6*01_IGHJ1*01 S102A/S103P/S104F/H111F (APFF) & L6_IGKJ1*01 S28N (Fab, V domains shown)
VH: B1 VH
VL: B1 VL with R28N
notes: Fab expressed in E. coli: VH joined to CH1 (Plasmid A, His6 and Flag tags), VL joined to kappa CL (Plasmid C); also called APFF S28N
B17: Fab VH1-46_IGHD6-6*01_IGHJ1*01 S102A/S103P/S104F/H111F (APFF) & L6_IGKJ1*01 S28H (Fab, V domains shown)
VH: B1 VH
VL: B1 VL with R28H
notes: Fab expressed in E. coli: VH joined to CH1 (Plasmid A, His6 and Flag tags), VL joined to kappa CL (Plasmid C); also called APFF S28H
B18: Fab VH1-46_IGHD6-6*01_IGHJ1*01 S102A/S103P/S104F/H111F (APFF) & L6_IGKJ1*01 S28M (Fab, V domains shown)
VH: B1 VH
VL: B1 VL with R28M
notes: Fab expressed in E. coli: VH joined to CH1 (Plasmid A, His6 and Flag tags), VL joined to kappa CL (Plasmid C); also called APFF S28M
B19: Fab VH1-46_IGHD6-6*01_IGHJ1*01 S102A/S103P/S104F/H111F (APFF) & L6_IGKJ1*01 S30D (Fab, V domains shown)
VH: B1 VH
VL: B1 VL with R28S, S30D
notes: Fab expressed in E. coli: VH joined to CH1 (Plasmid A, His6 and Flag tags), VL joined to kappa CL (Plasmid C); also called APFF S30D
B20: Fab VH1-46_IGHD6-6*01_IGHJ1*01 S102A/S103P/S104F/H111F (APFF) & L6_IGKJ1*01 S30A (Fab, V domains shown)
VH: B1 VH
VL: B1 VL with R28S, S30A
notes: Fab expressed in E. coli: VH joined to CH1 (Plasmid A, His6 and Flag tags), VL joined to kappa CL (Plasmid C); also called APFF S30A

target: T1, Recombinant Human DLL4 (R&D Systems Cat#1506-D4/CF) (human, UniProt Q9NR61 27-524); test: ECL multispot (MSD) binding assay, DLL4 signal over blank spot; Fab concentration not given
T1 construct: Bought recombinant protein; also called delta-like protein 4; rHuman DLL4

Signal/Blank	Binder
246	B1
454	B2
378	B3
660	B4
1020	B5
300	B6
524	B7
522	B8
141	B9
439	B10
309	B11
545	B12
472	B13
220	B14
664	B15
778	B16
609	B17
336	B18
568	B19
516	B20

target: T1, Recombinant Human DLL4 (R&D Systems …); test: ECL multispot (MSD) binding assay, DLL4 spotted on plate, purified Fab in solution; Fab concentration not given

ECL signal	Binder
110000	B1
178000	B2
133000	B3
191000	B4
203000	B5
122000	B6
199000	B7
159000	B8
129000	B9
184000	B10
106000	B11
165000	B12
157000	B13
72300	B14
180000	B15
204000	B16
209000	B17
108000	B18
225000	B19
184000	B20
